Experimental data as given in paper PMC4520625.

How the values were obtained:
[1] = molecular target: full-length human galectin-3 (human) (UniProt P17931); assay: ITC
[2] = molecular target: galectin-3 carbohydrate recognition domain (CRD) obtained by proteolytic truncation (human); assay: ITC

Chain of full-length human galectin-3 (human) (P17931 whole entry, the tested form may be a part): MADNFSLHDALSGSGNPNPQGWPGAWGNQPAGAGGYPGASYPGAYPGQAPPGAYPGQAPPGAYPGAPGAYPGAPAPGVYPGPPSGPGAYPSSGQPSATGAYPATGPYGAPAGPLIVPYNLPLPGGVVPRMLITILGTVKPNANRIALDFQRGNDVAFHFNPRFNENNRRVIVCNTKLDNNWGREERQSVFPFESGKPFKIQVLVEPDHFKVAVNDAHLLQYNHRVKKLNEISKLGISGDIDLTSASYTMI

dH [1]: -1.33 kcal/mol
dH [2]: -4.11 kcal/mol
Substance: MUC1-Ser5 glycopeptide carrying the TF antigen
